Results on 21 sequences are retold here after the supplement of paper PMC11780869.

The subject of the data set is Bacillus subtilis. Nature of the data set: cleaved RNA product abundance (RNA/gDNA barcode ratio) relative to median wild-type variant (ratio to wild type); higher = more accumulation of the downstream cleavage product. The note with it: cleavage site: cggR-gapA (positions -7 to +36 mutated). Summed up:
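B. subtilis strains with chromosomally integrated reporter mRNAs (truncated aprE or tetM) holding barcoded, mutagenized RNase Y cleavage-site windows grew in LB at 37°C from OD600 0.0003 to 0.3. Cleaved product abundance is each construct's RNA:gDNA barcode ratio, scaled to the median construct with the unmutated site. It came from sequencing barcodes of gel-selected, reverse-transcribed cleaved RNA and of genomic DNA.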

[1] abbreviates: experiment (reporter, strain, medium): exp 2b: truncated aprE reporter, strain BJT200.
Where [2] appears, read: experiment (reporter, strain, medium): exp 4a: truncated aprE reporter, strain BJT201 with 2% xylose (RNase J1 expressed).

Consider “ACAGACGAAGGAGCCGCAAAGAAGTTATTAAAGGATGAATAATCCCTCGATATAAATATCTCTCACTTATTTAAA”, for which the “cleaved RNA product abundance” value amounted to 0.0861 under setting [1] and 0.0487 under setting [2].

Turning to “ACAGACGAAGGAGCCGCAAAGAAGTTATTAAAGGATGAATAATCCCTCTATATAAAAATCTCTCACTTATTTAAA”, the “cleaved RNA product abundance” value under setting [2] was determined as 0.229.

For the sequence “ACAGACGAAGGAGCCGCAAAGAAGTTATTAAAGGATGAATAATCCCTCTATATAAATATCTCTCACTTATTTAAA”, the “cleaved RNA product abundance” value was 0.132 under setting [1] and 0.18 under setting [2].

In the case of “ACAGACGAAGGAGCCGCAAAGAAGTTATTAAAGGATGAATAATCCCTGAATATAAATATCTCTCACTTATTTAAA”, the “cleaved RNA product abundance” value by setting is: under setting [1], 0.133; under setting [2], 0.171.

As for “ACAGACGAAGGAGCCGCAAAGAAGTTATTAAAGGATGAATAATCCCTTAATATAAATATCTCTCACTTATTTAAA”, the “cleaved RNA product abundance” value is, setting by setting: under setting [1], 1.16; under setting [2], 1.06.

Turning to “ACAGACGAAGGAGCCGCAAAGAAGTTATTAAAGGATGAATAATCCGTCAATATAAATATCTCTCACTTATTTAAA”, the “cleaved RNA product abundance” value by setting is: under setting [1], 0.16; under setting [2], 0.161.

For the sequence “ACAGACGAAGGAGCCGCAAAGAAGTTATTAAAGGATGAATAATCCTTCAATATAAATATCTCTCACTTATTTAAA”, the “cleaved RNA product abundance” value turned out to be 0.646 under setting [1] and 0.86 under setting [2].

“ACAGACGAAGGAGCCGCAAAGAAGTTATTAAAGGATGAATAATCTCTCAATATAAATATCTCTCACTTATTTAAA”: the “cleaved RNA product abundance” value under setting [2] came out at 0.149.

As to “ACAGACGAAGGAGCCGCAAAGAAGTTATTAAAGGATGAATAATGCCTCAATATAAATATCTCTCACTTATTTAAA”, the “cleaved RNA product abundance” value under setting [1] turned out to be 0.118 and the “cleaved RNA product abundance” value under setting [2] turned out to be 0.087.

Take “ACAGACGAAGGAGCCGCAAAGAAGTTATTAAAGGATGAATAATTCCTCAATATAAATATCTCTCACTTATTTAAA”: the “cleaved RNA product abundance” value runs as follows: under setting [1], 0.0999; under setting [2], 0.172.

As for “ACAGACGAAGGAGCCGCAAAGAAGTTATTAAAGGATGAATACTCCCTCAATATAAATATCTCTCACTTATTTAAA”, the “cleaved RNA product abundance” value runs as follows: under setting [1], 0.117; under setting [2], 0.108.

Take “ACAGACGAAGGAGCCGCAAAGAAGTTATTAAAGGATGAATAGTCCCTCAATATAAATATCTCTCACTTATTTAAA”: the “cleaved RNA product abundance” value under setting [1] amounted to 0.124.

As for “ACAGACGAAGGAGCCGCAAAGAAGTTATTAAAGGATGAATATTCCCTAAATATAAATATCTCTCACTTATTTAAA”, the “cleaved RNA product abundance” value under setting [1] was 0.0923.

Regarding “ACAGACGAAGGAGCCGCAAAGAAGTTATTAAAGGATGAATATTCCCTCAATATAAATATCTCTCACTTATTTAAA”, under setting [2], the “cleaved RNA product abundance” value amounted to 0.183.

On to “ACAGACGAAGGAGCCGCAAAGAAGTTATTAAAGGATGAATCATCCCTCAATATAAATATCTCTCACTTATTTAAA”, for which the “cleaved RNA product abundance” value runs as follows: under setting [1], 0.178; under setting [2], 0.212.

Turning to “ACAGACGAAGGAGCCGCAAAGAAGTTATTAAAGGATGAATGATCCCTCAATATAAATATCTCTCACTTATTTAAA”, the “cleaved RNA product abundance” value is 0.0792 under setting [1] and 0.155 under setting [2].

Consider “ACAGACGAAGGAGCCGCAAAGAAGTTATTAAAGGATGAATTATCCCTCAATATAAATATCTCTCACTTATTTAAA”, for which the “cleaved RNA product abundance” value is, setting by setting: under setting [1], 0.14; under setting [2], 0.149.

On to “ACAGACGAAGGAGCCGCAAAGAAGTTATTAAAGGATGACTAATCCCTCAATATAAATATCTCTCACTTATTTAAA”, for which the “cleaved RNA product abundance” value by setting is: under setting [1], 0.0975; under setting [2], 0.133.

For “ACAGACGAAGGAGCCGCAAAGAAGTTATTAAAGGATGAGTAATCCCTCAATATAAATATCTCTCACTTATTTAAA”, the “cleaved RNA product abundance” value under setting [2] worked out at 0.202.

As to “ACAGACGAAGGAGCCGCAAAGAAGTTATTAAAGGATGATTAATCCCTCAATATAAATATCTCTCACTTATTTAAA”, the “cleaved RNA product abundance” value is 0.122 under setting [1] and 0.184 under setting [2].

For the sequence “ACAGACGAAGGAGCCGCAAAGAAGTTATTAAAGGATGCATAATCCCTCAATATAAATATCTCTCACTTATTTAAA”, the “cleaved RNA product abundance” value under setting [2] came to 0.312.
